± gives the standard deviation of the averaged measurements.
B1: library; numbered along this chain (parent)
chain: MNIQIGELAKRTACPVVTIRFYEQEGLLPPPGRSRGNFRLYGEEHVERLQFIRHCRSLDMPLSDVRTLLSYRKRPDQDCGEVNMLLDEHIRQVESRIGALLELKHHLVELREACSGARPAQSCGILQGLSDCVCDTRGTTAHPSD

How the values were obtained:
[1] = variants of: B1; test: sfGFP reporter fluorescence (15 h) (µM FITC); higher = higher leak; conditions: library round: Round 0; ligand: none
Summary of the method: (§1)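 With 1 µM lead chloride, 30 µM zinc acetate or no metal present, 1 μL Echo-assembled reactions were incubated 15 hr at 30 °C. They contained BL21 Star (DE3) PANOx-SP extract, 30 μg/mL GamS, the pPbrR-sfGFP reporter plasmid and PCR-made linear PbrR templates Echo-normalized to 5 nM. Endpoint sfGFP fluorescence was read on a Synergy Neo2 at 485/528 nm against FITC standards in 50 mM sodium borate pH 8.5. Results are expressed as µM FITC.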

[2] = variants of: B1; test: sfGFP reporter fluorescence (15 h) (µM FITC); higher = stronger transcriptional activation; conditions: library round: Round 0
Summary of the method: as §1

Variant | sfGFP reporter fluorescence [1] | sfGFP reporter fluorescence ([2]; ligand: 1 µM Pb) | sfGFP reporter fluorescence ([2]; ligand: 30 µM Zn)
C114P | 0.0552 ± 0.0013 | 0.0563 ± 0.0013 | 0.05204 ± 0.00052
C114E | 0.05699 ± 0.00026 | 0.0579 ± 0.001 | 0.0533 ± 0.0023
C114I | 0.05717 ± 0.00052 | 0.0942 ± 0.0015 | 0.863 ± 0.012
C114L | 0.0561 | 0.0583 ± 0.0015 | 0.0531 ± 0.0015
C114T | 0.0583 ± 0.0015 | 0.05864 ± 0.00052 | 0.0544 ± 0.0039
C114M | 0.05937 ± 0.00052 | 0.0603 ± 0.0013 | 0.0616 ± 0.0015
C114G | 0.052 ± 0.0015 | 0.0541 ± 0.00078 | 0.05 ± 0.00078
C114V | 0.0566 ± 0.00078 | 0.0555 ± 0.00078 | 0.05186 ± 0.00026
C114D | 0.0585 ± 0.00078 | 0.0588 ± 0.0018 | 0.0564 ± 0.0036
C114S | 0.05754 ± 0.00052 | 0.05809 ± 0.00026 | 0.0544 ± 0.0018
C114N | 0.0583 ± 0.0021 | 0.0579 ± 0.0015 | 0.0546 ± 0.0015
C114R | 0.0594 ± 0.001 | 0.06029 ± 0.00026 | 0.0564 ± 0.0015
C114K | 0.0583 ± 0.0031 | 0.0586 ± 0.001 | 0.0563 ± 0.0029
C114W | 0.0586 ± 0.001 | 0.0592 ± 0.0013 | 0.05241 ± 0.00052
C114F | 0.0572 ± 0.0015 | 0.0577 ± 0.00078 | 0.053 ± 0.0013
C114Q | 0.0568 ± 0.001 | 0.05864 ± 0.00052 | 0.0533 ± 0.0018
C114Y | 0.0585 ± 0.0018 | 0.0586 | 0.0544 ± 0.0013
C114A | 0.05607 ± 0.00052 | 0.0559 ± 0.0013 | 0.0542
C114H | 0.0581 ± 0.0023 | 0.0586 | 0.0563 ± 0.0034
G124A | 0.05919 ± 0.00026 | 0.064 ± 0.0013 | 0.222 ± 0.015
G116A | 0.0597 | 0.0581 ± 0.0023 | 0.18 ± 0.063
V108E | 0.0579 ± 0.001 | 0.06652 ± 0.00026 | 0.62 ± 0.11

Variant | sfGFP reporter fluorescence [1] | sfGFP reporter fluorescence ([2]; ligand: 1 µM Pb) | sfGFP reporter fluorescence ([2]; ligand: 30 µM Zn)
V108C | 0.0594 ± 0.0026 | 0.0788 ± 0.0015 | 1.04 ± 0.091
V108F | 0.0561 ± 0.001 | 0.0685 ± 0.001 | 0.436 ± 0.028
V108N | 0.0574 ± 0.0013 | 0.06414 ± 0.00052 | 0.611 ± 0.073
V108M | 0.05662 ± 0.00026 | 0.0682 ± 0.0026 | 0.583 ± 0.019
V108G | 0.057 ± 0.00078 | 0.0658 ± 0.0049 | 0.567 ± 0.1
V108R | 0.059 | 0.0788 ± 0.0021 | 0.8752 ± 0.0047
V108Q | 0.0566 ± 0.00078 | 0.068 ± 0.0018 | 0.672 ± 0.06
V108P | 0.0572 ± 0.0015 | 0.06011 ± 0.00052 | 0.0621 ± 0.0018
V108D | 0.061 ± 0.00078 | 0.0931 ± 0.0015 | 1.45 ± 0.068
V108I | 0.0566 ± 0.0013 | 0.0667 ± 0.0026 | 0.508 ± 0.011
V108T | 0.0588 ± 0.00078 | 0.0724 ± 0.00078 | 0.795 ± 0.063
V108S | 0.0568 ± 0.0026 | 0.0696 | 0.772 ± 0.061
V108L | 0.0594 ± 0.001 | 0.0696 ± 0.0026 | 0.616 ± 0.035
V108A | 0.06304 ± 0.00052 | 0.0729 ± 0.0042 | 0.408 ± 0.11
V108W | 0.0583 ± 0.001 | 0.072 ± 0.0029 | 0.554 ± 0.0067
V108K | 0.0607 ± 0.00078 | 0.0803 ± 0.0026 | 1.13 ± 0.093
V108H | 0.05772 ± 0.00026 | 0.0814 ± 0.0073 | 0.846 ± 0.019
V108Y | 0.0608 ± 0.0015 | 0.108 ± 0.0021 | 1.18 ± 0.067
L126C | 0.059 ± 0.0036 | 0.0572 ± 0.001 | 0.0563 ± 0.0029
L126A | 0.0685 ± 0.001 | 0.0682 ± 0.0026 | 0.0691 ± 0.0039
L126D | 0.0597 ± 0.0021 | 0.0581 ± 0.00078 | 0.0544 ± 0.0029
E109R | 0.06542 ± 0.00026 | 0.102 ± 0.0078 | 1.86 ± 0.052

Variant | sfGFP reporter fluorescence [1] | sfGFP reporter fluorescence ([2]; ligand: 1 µM Pb) | sfGFP reporter fluorescence ([2]; ligand: 30 µM Zn)
E109V | 0.0605 ± 0.0042 | 0.107 ± 0.0096 | 1.69 ± 0.1
E109I | 0.05919 ± 0.00026 | 0.108 ± 0.0018 | 1.25 ± 0.29
E109P | 0.0662 ± 0.0023 | 0.155 ± 0.011 | 1.45 ± 0.11
E109G | 0.05644 ± 0.00052 | 0.0695 ± 0.0013 | 0.793 ± 0.063
E109S | 0.0592 ± 0.00078 | 0.0803 ± 0.0026 | 1.47 ± 0.04
E109W | 0.061 ± 0.00078 | 0.0872 ± 0.0026 | 1.26 ± 0.035
E109H | 0.0581 ± 0.0013 | 0.0867 ± 0.0075 | 0.456 ± 0.012
E109Y | 0.06029 ± 0.00026 | 0.0832 ± 0.0031 | 1.46 ± 0.15
E109L | 0.0586 ± 0.001 | 0.0907 ± 0.0029 | 1.12 ± 0.12
E109K | 0.0649 ± 0.001 | 0.09492 ± 0.00052 | 2.2 ± 0.14
E109M | 0.061 ± 0.0013 | 0.0806 ± 0.0057 | 0.957 ± 0.061
E109C | 0.0596 ± 0.00078 | 0.0867 ± 0.0054 | 1.54 ± 0.077
E109F | 0.0621 ± 0.0013 | 0.09126 ± 0.00052 | 1.32 ± 0.051
E109D | 0.0597 ± 0.0021 | 0.0727 ± 0.0023 | 0.674 ± 0.02
E109Q | 0.0601 | 0.0823 ± 0.0034 | 1.08 ± 0.25
E109T | 0.0625 ± 0.0018 | 0.0935 ± 0.0026 | 1.71 ± 0.12
E109A | 0.0636 ± 0.00078 | 0.0804 ± 0.0039 | 0.883 ± 0.35
E109N | 0.05974 ± 0.00052 | 0.0845 ± 0.0044 | 1.47 ± 0.018
R111K | 0.0575 ± 0.0015 | 0.06194 ± 0.00052 | 0.149 ± 0.02
R111F | 0.0581 ± 0.00078 | 0.06927 ± 0.00052 | 0.328 ± 0.019
R111T | 0.0599 ± 0.00078 | 0.07752 ± 0.00026 | 0.535 ± 0.081
R111I | 0.0544 ± 0.00078 | 0.0662 ± 0.0013 | 0.288 ± 0.0036

Variant | sfGFP reporter fluorescence [1] | sfGFP reporter fluorescence ([2]; ligand: 1 µM Pb) | sfGFP reporter fluorescence ([2]; ligand: 30 µM Zn)
R111Y | 0.0566 ± 0.0023 | 0.0651 ± 0.00078 | 0.28 ± 0.029
R111P | 0.0577 ± 0.0018 | 0.05846 ± 0.00026 | 0.0542 ± 0.0015
R111M | 0.05772 ± 0.00026 | 0.0623 ± 0.0026 | 0.243 ± 0.001
R111E | 0.05864 ± 0.00052 | 0.0684 ± 0.00078 | 0.267 ± 0.013
R111D | 0.0585 ± 0.0013 | 0.06707 ± 0.00052 | 0.215 ± 0.0029
R111Q | 0.0572 ± 0.001 | 0.0618 ± 0.0013 | 0.275 ± 0.0083
R111H | 0.05791 ± 0.00052 | 0.0652 ± 0.0026 | 0.2344 ± 0.0013
R111N | 0.0583 | 0.0684 ± 0.00078 | 0.391 ± 0.032
R111S | 0.06102 ± 0.00026 | 0.0951 ± 0.0023 | 1.14 ± 0.11
R111G | 0.0535 | 0.0623 ± 0.001 | 0.343 ± 0.0083
R111C | 0.0572 ± 0.0021 | 0.077 ± 0.0042 | 0.157 ± 0.0054
R111A | 0.0634 ± 0.0026 | 0.09932 ± 0.00052 | 1.17 ± 0.021
R111L | 0.0552 ± 0.0013 | 0.06469 ± 0.00026 | 0.2 ± 0.016
R111V | 0.0586 ± 0.001 | 0.0744 ± 0.0021 | 0.483 ± 0.0073
R111W | 0.05937 ± 0.00052 | 0.0632 ± 0.0018 | 0.189 ± 0.0042
I125R | 0.0608 ± 0.0026 | 0.0603 ± 0.0013 | 0.0575 ± 0.0021
I125D | 0.0585 ± 0.0013 | 0.0583 ± 0.0031 | 0.0559 ± 0.0039
I125S | 0.0597 ± 0.0021 | 0.0574 ± 0.0013 | 0.0568 ± 0.0021
I125T | 0.0585 ± 0.0023 | 0.0566 ± 0.0013 | 0.06414 ± 0.00052
I125W | 0.0588 ± 0.0018 | 0.0596 ± 0.0013 | 0.0564 ± 0.0026
I125K | 0.0599 ± 0.0029 | 0.05864 ± 0.00052 | 0.0564 ± 0.0031
I125H | 0.0601 ± 0.0031 | 0.06011 ± 0.00052 | 0.057 ± 0.0023
